The results in this text go back to patent US20120058126A1.

For experiment [1], the target named is human sR3-AP (Ig domains 1-3) V175A (human) (UniProt P05187). As to the kind of experiment: sR3-AP binding assay: conditioned medium on VEGF-CΔNΔC-coated plates, AP chemiluminescence, triplicate.
Experiment [2] deals with human sR3-AP (Ig domains 1-3) P219L (human) (UniProt P05187). The description is as above.
human sR3-AP (Ig domains 1-3) P219L (human), sequence (P05187 other isoform, or with tags, fused parts or gaps P219L P219L): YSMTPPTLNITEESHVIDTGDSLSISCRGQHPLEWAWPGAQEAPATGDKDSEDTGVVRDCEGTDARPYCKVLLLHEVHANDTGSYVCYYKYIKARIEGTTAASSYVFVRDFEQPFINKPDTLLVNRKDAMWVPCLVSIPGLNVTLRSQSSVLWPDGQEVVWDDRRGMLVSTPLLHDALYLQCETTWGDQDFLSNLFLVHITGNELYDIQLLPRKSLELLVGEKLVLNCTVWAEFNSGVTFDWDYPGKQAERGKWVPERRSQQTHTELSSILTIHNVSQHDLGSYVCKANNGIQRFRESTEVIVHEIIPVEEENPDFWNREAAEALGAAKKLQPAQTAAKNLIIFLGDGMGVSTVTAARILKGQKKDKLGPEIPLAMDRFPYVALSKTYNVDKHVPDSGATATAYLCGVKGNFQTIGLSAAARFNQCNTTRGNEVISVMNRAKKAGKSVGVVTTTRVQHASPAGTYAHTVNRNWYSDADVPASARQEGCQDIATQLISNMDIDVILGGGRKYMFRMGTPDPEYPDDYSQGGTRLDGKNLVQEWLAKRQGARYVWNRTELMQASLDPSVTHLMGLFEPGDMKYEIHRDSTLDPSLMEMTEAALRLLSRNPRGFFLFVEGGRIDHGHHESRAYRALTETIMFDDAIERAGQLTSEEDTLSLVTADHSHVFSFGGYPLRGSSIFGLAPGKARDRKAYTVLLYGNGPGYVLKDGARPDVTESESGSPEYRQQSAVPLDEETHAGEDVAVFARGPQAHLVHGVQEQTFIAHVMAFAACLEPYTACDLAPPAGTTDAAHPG

recombinant mature human VEGF-CΔNΔC, sequence (P49767 112-215 limits assumed, stated change not applied): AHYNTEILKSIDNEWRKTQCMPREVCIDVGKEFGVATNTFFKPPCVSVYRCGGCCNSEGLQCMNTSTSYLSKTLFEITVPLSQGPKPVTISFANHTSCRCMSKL
human sR3-AP (Ig domains 1-3) V175A (human), sequence (P05187 other isoform, or with tags, fused parts or gaps V175A V175A): as the sequence (P05187 other isoform, or with tags, fused parts or gaps P219L P219L) above, with V151A, L195P counted along it

As to “recombinant mature human VEGF-CΔNΔC (from UniProt P49767 112-215) (ligand)”, the loss of binding against wild-type human sR3-AP in experiment [1] came to 50%; in experiment [2], 75%.
